This note sets out measurements from paper PMC11203719, “Mts1 (S100A4) and Its Peptide Demonstrate Cytotoxic Activity in Complex with Tag7 (PGLYRP1) Peptide” (International Journal of Molecular Sciences, 2024).

The target in this assay is Mts1 (S100A4) protein, recombinant human (human) (UniProt P26447). As to the kind of experiment: MST; Mts1 labelled with Alexa Fluor 633 (200 nM), preincubated 20 min in the dark at room temperature with 16 concentrations of Tag7 or peptide; Monolith NT.115, 10% IR laser power; apparent Kd.
Chain of Mts1 (S100A4) protein, recombinant human (human) (P26447 whole entry): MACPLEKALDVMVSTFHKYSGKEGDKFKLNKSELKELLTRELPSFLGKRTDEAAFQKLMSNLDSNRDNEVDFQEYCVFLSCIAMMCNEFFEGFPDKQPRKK

With “Tag7 (PGLYRP1) protein, recombinant (from UniProt O88593 19-182) (natural protein)”, the Kd stood at 9.21 µM.
